The text below walks through data of PMC10404625 (The Journal of Biological Chemistry, 2023).

Ends that are not written are not given here.

The term Kd denotes the concentration at which binding is half-saturated. Low readings indicate a tighter complex, high ones a looser complex.

What all share (assay): MST
Assay [1] has as its target three Rpc53 N-ter mutant peptides.
The target of another assay is T1, full-length Rpc37 (S. cerevisiae, UniProt P36121 1-282).
T1 sequence (looked up): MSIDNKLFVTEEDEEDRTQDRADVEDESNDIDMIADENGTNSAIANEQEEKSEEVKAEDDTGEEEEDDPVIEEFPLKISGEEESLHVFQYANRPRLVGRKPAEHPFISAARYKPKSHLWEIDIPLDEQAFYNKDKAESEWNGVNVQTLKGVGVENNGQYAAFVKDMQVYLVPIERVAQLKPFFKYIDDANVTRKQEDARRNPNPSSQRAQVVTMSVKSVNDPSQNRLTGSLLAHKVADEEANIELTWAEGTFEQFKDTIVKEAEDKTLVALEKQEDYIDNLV

For another assay, the target named is T2, Rpc25/17 heterodimer (S. cerevisiae, UniProt P35718 1-212; P47076 1-161).
T2 sequence (looked up) 1: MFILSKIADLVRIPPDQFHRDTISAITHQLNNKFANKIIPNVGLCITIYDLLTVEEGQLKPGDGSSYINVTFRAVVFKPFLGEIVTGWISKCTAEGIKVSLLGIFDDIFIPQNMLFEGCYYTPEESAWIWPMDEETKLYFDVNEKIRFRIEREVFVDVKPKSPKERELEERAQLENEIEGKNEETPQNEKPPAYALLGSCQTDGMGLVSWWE
T2 sequence (looked up) 2: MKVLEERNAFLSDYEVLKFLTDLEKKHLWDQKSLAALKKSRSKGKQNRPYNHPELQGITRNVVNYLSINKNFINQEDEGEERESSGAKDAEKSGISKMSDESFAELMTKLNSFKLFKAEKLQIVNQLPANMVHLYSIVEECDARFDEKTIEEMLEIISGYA

The next assay has as its target T3, Tfc4 N-ter (1–580) (S. cerevisiae, UniProt P33339 1-580).
T3 sequence (looked up): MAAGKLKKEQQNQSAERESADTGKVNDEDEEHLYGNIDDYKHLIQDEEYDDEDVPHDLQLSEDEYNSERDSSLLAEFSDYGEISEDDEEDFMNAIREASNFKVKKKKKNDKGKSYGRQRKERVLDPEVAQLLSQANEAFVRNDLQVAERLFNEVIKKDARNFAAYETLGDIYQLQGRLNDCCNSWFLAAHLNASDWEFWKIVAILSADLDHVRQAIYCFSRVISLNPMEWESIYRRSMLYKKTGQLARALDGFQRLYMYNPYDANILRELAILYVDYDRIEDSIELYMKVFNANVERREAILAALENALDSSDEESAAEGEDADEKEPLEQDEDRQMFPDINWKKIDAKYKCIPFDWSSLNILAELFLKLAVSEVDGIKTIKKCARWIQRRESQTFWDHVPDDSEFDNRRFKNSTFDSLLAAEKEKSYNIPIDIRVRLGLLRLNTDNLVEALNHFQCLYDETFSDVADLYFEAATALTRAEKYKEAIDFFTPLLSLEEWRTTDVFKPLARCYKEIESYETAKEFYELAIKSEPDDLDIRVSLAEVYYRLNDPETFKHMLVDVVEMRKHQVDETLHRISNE

Assay [2] concerns the target T4, Rpc53/37 dimerization module (Rpc53 (274–422)/Rpc37 (71–181)) (S. cerevisiae, UniProt P25441 274-422; P36121 71-181).
T4 sequence (looked up) 1: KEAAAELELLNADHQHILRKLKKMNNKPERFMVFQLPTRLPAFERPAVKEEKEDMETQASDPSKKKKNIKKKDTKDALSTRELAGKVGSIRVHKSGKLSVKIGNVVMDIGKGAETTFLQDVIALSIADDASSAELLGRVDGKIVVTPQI
T4 sequence (looked up) 2: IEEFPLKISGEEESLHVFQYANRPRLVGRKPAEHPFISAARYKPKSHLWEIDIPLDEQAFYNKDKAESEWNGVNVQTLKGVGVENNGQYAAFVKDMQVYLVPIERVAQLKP

B1: Tfc4 N-ter (1–580) (domain or fragment)
chain: MAAGKLKKEQQNQSAERESADTGKVNDEDEEHLYGNIDDYKHLIQDEEYDDEDVPHDLQLSEDEYNSERDSSLLAEFSDYGEISEDDEEDFMNAIREASNFKVKKKKKNDKGKSYGRQRKERVLDPEVAQLLSQANEAFVRNDLQVAERLFNEVIKKDARNFAAYETLGDIYQLQGRLNDCCNSWFLAAHLNASDWEFWKIVAILSADLDHVRQAIYCFSRVISLNPMEWESIYRRSMLYKKTGQLARALDGFQRLYMYNPYDANILRELAILYVDYDRIEDSIELYMKVFNANVERREAILAALENALDSSDEESAAEGEDADEKEPLEQDEDRQMFPDINWKKIDAKYKCIPFDWSSLNILAELFLKLAVSEVDGIKTIKKCARWIQRRESQTFWDHVPDDSEFDNRRFKNSTFDSLLAAEKEKSYNIPIDIRVRLGLLRLNTDNLVEALNHFQCLYDETFSDVADLYFEAATALTRAEKYKEAIDFFTPLLSLEEWRTTDVFKPLARCYKEIESYETAKEFYELAIKSEPDDLDIRVSLAEVYYRLNDPETFKHMLVDVVEMRKHQVDETLHRISNE
As to B1, the dissociation constant (Kd) in assay [1] fell in the range of 40 to 100 nM.

B2: Rpc53 N-ter (1–57) fragment (domain or fragment, S. cerevisiae, UniProt P25441 1-57, looked up)
chain: MSSNKGNGRLPSLKDSSSNGGGSAKPSLKFKPKAVARKSKEEREAAASKVKLEEESK
modifications: also: Alexa Fluor 647 via NHS ester, position not given here
For the molecule B2, the Kd with full-length Rpc37 was found to be 8.2 ± 1.7 nM; with Rpc25/17 heterodimer it was 230 ± 170 nM; in the assay with Tfc4 N-ter (1–580), 5.6 ± 1.7 nM; in assay [2], 1620 ± 650 nM.
